Bridges are numbered along the chain shown (N, C = ends). Where no end group is shown, it is not given here. Side-chain parts run from the residue outwards. [ ]: non-standard residue; d: D form. tBuAla = CC(C)(C)C[C@H](N)C(=O)O; Tle = CC(C)(C)[C@H](N)C(=O)O; linker = not defined here; Nle = CCCC[C@H](N)C(=O)O; siRNA = not defined here
B1: SORT1 peptide 3 conjugate (peptide)
peptide: RWCENK([linker-siRNA])R[Nle]FTCRQ[Tle][tBuAla]
modifications: disulfide 3-11 (inferred); not fully specified; printed as RWCENKR(Nle)FTCRQ(B13)(F02); reading uncertain
notes: also called SORT1 peptide 3 siRNA conjugate

Key:
[1] = Maximum tolerated dose (MTD) study; type: in vivo, mouse
Procedure: BALB/c Nude mice, female, 6-8 weeks, weighing approximately 18-22 g were purchased from the Shanghai SLAC Laboratory Animal Co., LTD. MTD studies were conducted at WuXi AppTec and the care and use of animals was conducted in accordance with the regulations of the Association for Assessment and Accreditation of Laboratory Animal Care (AAALAC). Two MTD studies were performed (a) a low dose study with doses ranging from 0.1, 0.5, 1 and 3 mg/kg and (b) a high dose study with doses ranging from 3, 5, 10 mg/kg. Dosing volume was determined based on body weight (10 ul/g) and PDCs were dissolved in 25 mM Histidine 10% sucrose pH 7 and administered i.v. at a single dose at day 0. The treatment and observation were conducted up to 7 days and MTD was defined by ≥20% body weight loss. Body weights were measured daily, death and observed clinical signs were recorded.
Doses of 3, 5, and 10 mg/kg were administered. MTD was defined by ≥20% body weight loss and body weight measured daily.

[2] = target: T1, rat SORT1 (76-752)-His (rat, UniProt O54861 76-752); test: SPR (Biacore 8K), SORT1 on CM5 chip, siRNA-peptide conjugate as analyte, 1:1 model
T1 construct: range 76-752; Amine-coupled to CM5 chip for SPR
T1 sequence (looked up): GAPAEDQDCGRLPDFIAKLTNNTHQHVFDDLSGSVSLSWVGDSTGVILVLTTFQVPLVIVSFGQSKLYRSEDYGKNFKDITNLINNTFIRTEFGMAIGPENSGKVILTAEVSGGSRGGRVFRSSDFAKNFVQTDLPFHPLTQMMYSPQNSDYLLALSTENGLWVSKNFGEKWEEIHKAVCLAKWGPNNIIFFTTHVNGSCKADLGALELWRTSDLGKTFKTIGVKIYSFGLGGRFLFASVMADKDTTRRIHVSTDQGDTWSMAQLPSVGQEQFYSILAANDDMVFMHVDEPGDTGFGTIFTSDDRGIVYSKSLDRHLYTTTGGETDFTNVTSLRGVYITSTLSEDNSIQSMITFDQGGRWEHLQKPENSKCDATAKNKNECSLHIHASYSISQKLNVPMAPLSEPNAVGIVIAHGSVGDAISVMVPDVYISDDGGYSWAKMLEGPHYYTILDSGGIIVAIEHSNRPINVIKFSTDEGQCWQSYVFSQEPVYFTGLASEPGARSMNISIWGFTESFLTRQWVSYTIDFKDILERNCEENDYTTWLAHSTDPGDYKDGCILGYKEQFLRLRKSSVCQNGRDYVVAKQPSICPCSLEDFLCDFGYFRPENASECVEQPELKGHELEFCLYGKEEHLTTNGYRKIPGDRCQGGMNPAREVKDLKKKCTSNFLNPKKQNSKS
Procedure: (§1) SPR analysis was performed on Series S CM5 chips (Cytiva) using a Biacore 8K instrument (Cytiva). Sensorgrams were double-referenced by subtracting the response on both a reference flow cell and a blank sample. Human SORT1 (78-755)-His (Acrobiosystems), human SORT1 (78-755)-His(GenScript), mouse SORT1 (76-753)-His (R&D Systems), rat SORT1 (76-752)-His (GenScript), and cyno SORT1 (76-753)-His (GenScript) were diluted to 20-60 μg/mL in 10 mM sodium acetate pH 4.5 buffer and immobilized onto Series S CM5 chips using amine coupling at a flow rate of 10 μL/min for 45-100 s.
(§2) Ten start-up cycles and a blank cycle preceded each analysis run. The runs were performed by sequential injections of analyte (0-20 nM, 3-fold serial dilutions) with a 90 s association and 900 s dissociation at a flow rate of 30 μL/min, followed by two regeneration cycles with 2 M MgCl2 for 90 s at a flow rate of 10 μL/min. […] Five start-up cycles and a blank cycle preceded each analysis run. The runs were performed by sequential injections of analyte (0-25 nM) with a 150 seconds (s) association and 300 s dissociation at a flow rate of 30 μL/min, followed by a regeneration with 2 M MgCl₂ for 200 s at a flow rate of 10 μL/min. The kinetic rate constants (kₐ and kd) and the equilibrium binding constant (Kd) were calculated using a 1:1 kinetic binding model on the Biacore Insight Evaluation Software (Cytiva).
(§3) SPR analysis was performed on Series S CM5 chips (Cytiva) using a Biacore 8K instrument (Cytiva). Sensorgrams were double-referenced by subtracting the response on both a reference flow cell and a blank sample. The SPR analysis was conducted using four different SORT1 species: Human SORT1, Mouse SORT1, Rat SORT1, and Cyno SORT1. The samples were prepared according to the general procedure described above herein. The kinetic rate constants (ka and […]) and the equilibrium binding constant (Kd) were calculated using a 1:1 kinetic binding model on the Biacore Insight Evaluation Software (Cytiva).

[3] = target: T2, cyno SORT1 (76-753)-His (cyno, UniProt A0A2K5VHG2 74-751); test: as above
T2 construct: range 76-753; Amine-coupled to CM5 chip for SPR
T2 sequence: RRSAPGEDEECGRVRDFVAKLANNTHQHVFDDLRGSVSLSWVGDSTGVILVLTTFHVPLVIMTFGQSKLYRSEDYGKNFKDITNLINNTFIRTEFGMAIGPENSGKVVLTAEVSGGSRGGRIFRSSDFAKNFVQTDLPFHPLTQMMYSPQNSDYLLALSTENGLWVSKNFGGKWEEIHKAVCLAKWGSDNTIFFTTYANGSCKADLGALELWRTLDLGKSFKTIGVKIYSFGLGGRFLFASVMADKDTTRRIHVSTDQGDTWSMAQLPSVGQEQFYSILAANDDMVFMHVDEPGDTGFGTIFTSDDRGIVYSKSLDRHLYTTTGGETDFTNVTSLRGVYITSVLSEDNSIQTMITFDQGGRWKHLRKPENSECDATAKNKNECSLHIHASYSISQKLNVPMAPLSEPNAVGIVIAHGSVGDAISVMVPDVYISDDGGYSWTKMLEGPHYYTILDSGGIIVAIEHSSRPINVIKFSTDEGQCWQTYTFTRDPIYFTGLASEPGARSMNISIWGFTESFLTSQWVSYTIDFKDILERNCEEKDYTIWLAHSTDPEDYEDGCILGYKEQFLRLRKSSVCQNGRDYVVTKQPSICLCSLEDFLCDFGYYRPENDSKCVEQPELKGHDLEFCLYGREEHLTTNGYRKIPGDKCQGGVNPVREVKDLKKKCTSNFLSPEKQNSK
Procedure: as §1, §2, §3

Row | Molecule | sustained body weight loss ([1]; 5 mg/kg i.v. single dose, after 48 hrs, recovered at Day 7) | toxicity ([1]; 10 mg/kg i.v. single dose) | body weight loss ([1]; 10 mg/kg i.v. single dose, after 48 hrs, BALB/c nude mice) | Kd [2] | Kd [3]
1 | CC[C@H](C)[C@@H]([C@@H](CC(=O)N1CCC[C@H]1[C@H](OC)[C@@H](C)C(=O)N[C@H](C)[C@@H](O)c1ccccc1)OC)N(C)C(=O)[C@@H](NC(=O)[C@H](C(C)C)N(C)C(=O)OCc1ccc(NC(=O)[C@H](CCCNC(N)=O)NC(=O)[C@@H](NC(=O)CCCC(=O)NCCC(=O)N(C)CC(=O)N(C)CC(=O)N(C)CC(=O)N(C)CC(=O)N[C@@H](C)C(=O)N2CCC[C@H]2C(=O)N[C@@H](CCCNC(=N)N)C(=O)N[C@@H](Cc2c[nH]c3ccccc23)C(=O)N[C@@H](CC(=O)O)C(=O)N[C@@H](C)C(=O)N2CCC[C@H]2C(=O)N[C@@H](CC(C)C)C(=O)N[C@@H](CCCNC(=N)N)C(=O)N[C@@H](CC(=O)O)C(=O)N2CCC[C@H]2C(=O)N[C@@H](C)C(=O)N[C@@H](CC(C)C)C(=O)N[C@@H](CCCNC(=N)N)C(=O)N[C@@H](CCC(N)=O)C(=O)N[C@@H](CC(C)C)C(=O)N[C@@H](CC(C)C)C(=O)O)C(C)C)cc1)C(C)C [PRGN_WT_PDC] | ~15% | significant toxicity | greater than 20% | – | –
2 | B1 | – | – | – | 253 nM | 191 nM
